The record followed here is the supplement of paper PMC10567573.

± gives the standard deviation.

A short description of the data set: protein stability index of a GFP-peptide fusion (GPS, HEK-293T) (PSI 1-6); higher = more stable. The note with it: c terminus: a fixed tail appended.
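Further: 24-mer peptide tiles fused after GFP, lentivirally expressed, FACS-sorted into six equal bins by GFP/DsRed ratio, decoded by Illumina sequencing, PSI is the read-weighted mean bin number.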

For the sequence ERRRRFNINDRIKELGTLIPKSSD [TFE3], the protein stability index by setting is: (treatment: DMSO) 4.04 ± 0.099; (treatment: MLN4924 1 uM, 8 h) 4.09 ± 0.2.
MRELGLLIFFLFIGVILFSSAVYF [KCNA4] showed a protein stability index (treatment: DMSO) of 2.91 ± 0.35 and a protein stability index (treatment: MLN4924 1 uM, 8 h) of 2.03 ± 0.64.
As for FTGELAESRQTEVVIRDIDERAME [KLHL20], the protein stability index reads like this: (treatment: DMSO) 4.69 ± 0.21; (treatment: MLN4924 1 uM, 8 h) 4.89 ± 0.33.
For the sequence NQIMPKTGFLIIILAIIAKEGDCA [MAGEA6], the protein stability index came out at 2.98 ± 0.45 (treatment: DMSO) and 2.47 ± 0.61 (treatment: MLN4924 1 uM, 8 h).
Taken in the same sequence, the figures for GFFDFETFDVDEYEHYERVENGDF [CDC14A] were 4.14 ± 0.51 and 4.49 ± 0.52.
ESLEPDAQVLMLGQILELPWKEET [FANCE]: the protein stability index runs as follows: (treatment: DMSO) 4.17 ± 0.11; (treatment: MLN4924 1 uM, 8 h) 4.17 ± 0.33.
For VGTGTFGRVHLVKEKTAKHFFALK [PRKX], the protein stability index was determined as 2.46 ± 0.15 (treatment: DMSO) and 2.85 ± 0.17 (treatment: MLN4924 1 uM, 8 h).
In the same order, the values of RTSRKFLACRLTPDMETKLLFMTS [INTS3] are 2.49 ± 0.37 and 2.33 ± 0.39.
Regarding RKRNPSRKKQHICDECGKHFSQGS [ZNF24], the protein stability index was 3.91 ± 0.19 (treatment: DMSO) and 4.12 ± 0.097 (treatment: MLN4924 1 uM, 8 h).
With MAATCEISNIFSNYFSAMYSSEDS [ELF3], the protein stability index was 2.29 ± 0.22 (treatment: DMSO) and 2.3 ± 0.21 (treatment: MLN4924 1 uM, 8 h).
Taken in the same sequence, the figures for SKIDHYVLEYRRTNFEGPPRLKED [FSD1] were 3.52 ± 0.15 and 3.63 ± 0.087.
CRLINEDVNEQVMQVLGPEDLQSI [CEP70] gave a protein stability index (treatment: DMSO) of 3.65 ± 0.32 and a protein stability index (treatment: MLN4924 1 uM, 8 h) of 3.54 ± 0.28.
As to DRENGSDNLPSSAGSGDKPLSDPA [TPD52L2], the protein stability index runs as follows: (treatment: DMSO) 5.49 ± 0.26; (treatment: MLN4924 1 uM, 8 h) 5.45 ± 0.29.
In the same order, the values of QPTIVEALLGYEMVQVACGASHVL [NEK8] are 2.75 ± 0.45 and 2.74 ± 0.7.
On to VSPGGVKLEISTKEVPVVHTETKT [EPB41L3], for which the protein stability index reads like this: (treatment: DMSO) 4.88 ± 0.29; (treatment: MLN4924 1 uM, 8 h) 5 ± 0.3.
For NAPKFQAENLDVKINENVAAGMRF [PCDHGA10], the protein stability index came out at 3.77 ± 0.61 (treatment: DMSO) and 3.86 ± 0.45 (treatment: MLN4924 1 uM, 8 h).
As to LGSAGAQYEKYSFRGFPPEDLMPL [P3H4], the protein stability index by setting is: (treatment: DMSO) 2.87 ± 0.52; (treatment: MLN4924 1 uM, 8 h) 2.86 ± 0.17.
For DLQLTVGGAQASGTLIGVGQSVTA [MFSD9], the protein stability index by setting is: (treatment: DMSO) 3.52 ± 0.34; (treatment: MLN4924 1 uM, 8 h) 3.6 ± 0.24.
Take GSSDSEEERATRLAELQEQLKAVH [BRD3]: the protein stability index runs as follows: (treatment: DMSO) 5.13 ± 0.23; (treatment: MLN4924 1 uM, 8 h) 5.15 ± 0.27.
For the sequence KMNDSEGMDPERLKAFNMFVRLFV [NOL4L], the protein stability index is, setting by setting: (treatment: DMSO) 2.08 ± 0.11; (treatment: MLN4924 1 uM, 8 h) 2.23 ± 0.26.
With QLDWDELETNQQHFHALCHSLLVS [M1AP], the protein stability index is 2.3 ± 0.29 (treatment: DMSO) and 2.69 ± 0.45 (treatment: MLN4924 1 uM, 8 h).
